# Laboratory results reported in article PMC12636033, “Chemical Engineering of Transcription Factors Uncovered Cell-Permeable μMax Modulators”.
# B1: dBr_Jan07_02776 (dsDNA)
# DNA 1: GACGAAGTAAGGCTAGCTTGTCGCTAAAAAGACGCAGTCTGTGTTCCGTTGTCCGTGCTG
# DNA 2: CAGCACGGACAACGGAACACAGACTGCGTCTTTTTAGCGACAAGCTAGCCTTACTTCGTC
# B2: dBr_Jan07_10189 (dsDNA)
# DNA 1: GTTTGTGAGGTTCCTGACTCTGAGCGGACCGGTAGAGTCTGTGTTCCGTTGTCCGTGCTG
# DNA 2: CAGCACGGACAACGGAACACAGACTCTACCGGTCCGCTCAGAGTCAGGAACCTCACAAAC
# B3: dBr_Jan07_03145 (dsDNA)
# DNA 1: CCGATTTAGGAGCGGGTAAATACAGGCAGCTCTCTGGTCTGTGTTCCGTTGTCCGTGCTG
# DNA 2: CAGCACGGACAACGGAACACAGACCAGAGAGCTGCCTGTATTTACCCGCTCCTAAATCGG
# B4: dBr_Jan07_36814 (dsDNA)
# DNA 1: GCGCAAGCCATGACCCGGTACGATTTAGAAATGGCGGTCTGTGTTCCGTTGTCCGTGCTG
# DNA 2: CAGCACGGACAACGGAACACAGACCGCCATTTCTAAATCGTACCGGGTCATGGCTTGCGC
# B5: dBr_Jan07_09107 (dsDNA)
# DNA 1: TCTCCTGTGACAATTACGCCCCCCCCAGGCGCCTACGTCTGTGTTCCGTTGTCCGTGCTG
# DNA 2: CAGCACGGACAACGGAACACAGACGTAGGCGCCTGGGGGGGGCGTAATTGTCACAGGAGA
# B6: dBr_Jan07_20877 (dsDNA)
# DNA 1: TAAACCTAGAGACGCTAAGAACACTTACAGGCGAGCGTCTGTGTTCCGTTGTCCGTGCTG
# DNA 2: CAGCACGGACAACGGAACACAGACGCTCGCCTGTAAGTGTTCTTAGCGTCTCTAGGTTTA
# B7: dBr_Jan07_01315 (dsDNA)
# DNA 1: ATTACCTACTCAACTTACTAGGAAACACGTGCACATGTCTGTGTTCCGTTGTCCGTGCTG
# DNA 2: CAGCACGGACAACGGAACACAGACATGTGCACGTGTTTCCTAGTAAGTTGAGTAGGTAAT
# B8: dBr_Jan07_16204 (dsDNA)
# DNA 1: ATGAACCAATCGGTCGATTAGAGATAGAGAAAGAAGGTCTGTGTTCCGTTGTCCGTGCTG
# DNA 2: CAGCACGGACAACGGAACACAGACCTTCTTTCTCTATCTCTAATCGACCGATTGGTTCAT
# B9: dBr_Jan07_22161 (dsDNA)
# DNA 1: GAATTTACCCGCGCTGTTGGTCACGTGTGTGGTTTTGTCTGTGTTCCGTTGTCCGTGCTG
# DNA 2: CAGCACGGACAACGGAACACAGACAAAACCACACACGTGACCAACAGCGCGGGTAAATTC
# B10: dBr_Jan07_30895 (dsDNA)
# DNA 1: TTGCCGTATAGTGATCCTAAGCGTCCACGTGGATGAGTCTGTGTTCCGTTGTCCGTGCTG
# DNA 2: CAGCACGGACAACGGAACACAGACTCATCCACGTGGACGCTTAGGATCACTATACGGCAA
# B11: dBr_Jan07_25737 (dsDNA)
# DNA 1: TGCACGACCAGTCATCCACGTGTTTGCCCGCAAAGTGTCTGTGTTCCGTTGTCCGTGCTG
# DNA 2: CAGCACGGACAACGGAACACAGACACTTTGCGGGCAAACACGTGGATGACTGGTCGTGCA
# B12: dBr_Jan07_16171 (dsDNA)
# DNA 1: ATCACGTGCATCTACTAGACACCCCATGCGTTAGGCGTCTGTGTTCCGTTGTCCGTGCTG
# DNA 2: CAGCACGGACAACGGAACACAGACGCCTAACGCATGGGGTGTCTAGTAGATGCACGTGAT
# B13: dBr_Jan07_04478 (dsDNA)
# DNA 1: AGTTGCGCCACTATGCCAAAACACCATTGAGCACGTGTCTGTGTTCCGTTGTCCGTGCTG
# DNA 2: CAGCACGGACAACGGAACACAGACACGTGCTCAATGGTGTTTTGGCATAGTGGCGCAACT
# Target: WT Max (Homo sapiens, UniProt P61244-2 13-93, M65Nle, norleucine written as M; other non-natural residues written as X)
# Sequence (P61244 other isoform, or with tags, fused parts or gaps M65Nle): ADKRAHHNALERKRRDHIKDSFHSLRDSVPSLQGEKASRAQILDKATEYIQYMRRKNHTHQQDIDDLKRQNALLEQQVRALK
# Experiment: PBM; 50-200 nM protein; PBS, 2% milk, BSA, salmon testes DNA, 0.02% Triton X-100
# Details: chain copies: 2; label: surface-attached array probe
row,Binder,binding signal
1,B1,"-1.15 robust z of log adjusted intensity (ours), mean of two arrays"
2,B2,"-0.8 robust z of log adjusted intensity (ours), mean of two arrays"
3,B3,"-1.12 robust z of log adjusted intensity (ours), mean of two arrays"
4,B4,"-1.34 robust z of log adjusted intensity (ours), mean of two arrays"
5,B5,"-1.31 robust z of log adjusted intensity (ours), mean of two arrays"
6,B6,"-1.02 robust z of log adjusted intensity (ours), mean of two arrays"
7,B7,"5.18 robust z of log adjusted intensity (ours), mean of two arrays"
8,B8,"-1.46 robust z of log adjusted intensity (ours), mean of two arrays"
9,B9,"5.72 robust z of log adjusted intensity (ours), mean of two arrays"
10,B10,"4.78 robust z of log adjusted intensity (ours), mean of two arrays"
11,B11,"4.58 robust z of log adjusted intensity (ours), mean of two arrays"
12,B12,"6.35 robust z of log adjusted intensity (ours), mean of two arrays"
13,B13,"4.55 robust z of log adjusted intensity (ours), mean of two arrays"
